Some targets named below: yeast Hsp90 L15A (yeast) (UniProt P02829); yeast Hsp90 L18A (yeast) (UniProt P02829); yeast Hsp90 L18R (yeast) (UniProt P02829).
Another test concerns the target human Hsp90β (human) (UniProt P08238). The test can be described thus: cross-linking.

As a reminder, the stoichiometry N is the number of molecules, sites or subunits per partner or assembly.

Sequence of human Hsp90β, P08238 1-724 (natural protein; other documents disagree on this pair) (P08238 whole entry): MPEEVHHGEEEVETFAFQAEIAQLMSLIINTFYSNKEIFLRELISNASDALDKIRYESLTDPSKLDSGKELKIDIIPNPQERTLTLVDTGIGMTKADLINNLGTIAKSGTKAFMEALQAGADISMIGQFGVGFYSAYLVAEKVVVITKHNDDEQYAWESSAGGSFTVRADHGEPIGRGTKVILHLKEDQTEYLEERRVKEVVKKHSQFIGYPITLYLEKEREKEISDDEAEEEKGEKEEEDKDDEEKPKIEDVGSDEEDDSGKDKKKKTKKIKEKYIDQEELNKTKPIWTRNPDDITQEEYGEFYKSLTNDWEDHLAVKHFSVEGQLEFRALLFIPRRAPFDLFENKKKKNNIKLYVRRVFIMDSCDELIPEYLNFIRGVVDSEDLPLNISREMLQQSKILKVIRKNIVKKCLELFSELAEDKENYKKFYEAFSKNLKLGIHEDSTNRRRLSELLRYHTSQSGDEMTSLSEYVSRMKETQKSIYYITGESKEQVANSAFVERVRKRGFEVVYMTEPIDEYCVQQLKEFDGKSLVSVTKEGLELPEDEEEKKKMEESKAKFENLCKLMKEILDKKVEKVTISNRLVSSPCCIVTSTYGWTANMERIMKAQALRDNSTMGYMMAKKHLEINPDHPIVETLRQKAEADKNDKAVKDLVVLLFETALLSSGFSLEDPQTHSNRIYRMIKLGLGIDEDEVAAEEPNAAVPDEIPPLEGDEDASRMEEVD

In the test with human Hsp90β (human), “human Hsp90β, P08238 1-724 (natural protein; other documents disagree on this pair)” registered a stoichiometry N of 2.
“yeast Hsp90 L15A (from UniProt P02829 1-709) (natural protein)” gave an ATPase activity relative to wild-type yeast Hsp90 in the test with yeast Hsp90 L15A (yeast) of 157.
As to “yeast Hsp90 L18A (from UniProt P02829 1-709) (natural protein)”, in the test with yeast Hsp90 L18A (yeast), the ATPase activity relative to wild-type yeast Hsp90 was 103.
In turn, “yeast Hsp90 L18R (from UniProt P02829 1-709) (natural protein)” had an ATPase activity relative to wild-type yeast Hsp90 with yeast Hsp90 L18R (yeast) of 42.

These data come from publication PMC2702006.
